In US20150291675A1 (published 2015):
Where a chain is given by its changes, count along the chain named.

T1: C-terminal biotinylated human Hepcidin-25 (human, not fully specified; biotinylated via a Lysine residue coupled to the C-terminus via a Mini-PEG linker)
T1 construct: Captured on plates via Neutravidin in the ELISAs; also called C-terminal biotinylated hHepcidin; C-terminal biotinylated hepcidin (Bachem AG)
T1 peptide: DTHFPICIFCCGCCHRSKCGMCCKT

T2: synthetic non-modified human Hepcidin-25 (human, not fully specified)
T2 construct: also called hHepcidin-25; non-biotinylated human Hepcidin-25
T2 peptide: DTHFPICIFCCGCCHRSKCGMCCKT

B1: lipocalin mutein of SEQ ID NO: 3 (designed binder)
chain: QDSTSDLIPAPPLSKVPLQQNFQDNQFHGKWYVVGVAGNGLLREDKDPLKMHATIYELKEDKSYNVTRVLFVRKKCRYYISTFVPGSQPGEFTLGRIKSEPGRTSFLVRVVSTNYNQHAMVFFKMVWQNREVFWITLYGRTKELTSELKENFIRFSKSLGLPENHIVFPVPIDQCIDG
notes: Purified with C-terminal Strep-tag II; also called hNGAL mutein; Lcn2 mutein; not shown: C-terminal Strep-tag II encoded by phNGAL98
B2: lipocalin mutein of SEQ ID NO: 7 (designed binder)
chain: QDSTSDLIPAPPLSKVPLQQNFQDNQFHGKWYVVGLAGNRVLREDKDPQKMFATIYELKEDKSYNVTGVDFRTKKCLYSIGTFVPGSQPGEFTLGVIKSQPGWTSYLVRVVSTNYNQHAMVFFKTVWQNREVFWITLYGRTKELTSELKENFIRFSKSLGLPENHIVFPVPIDQCIDG
notes: as for B1
B3: lipocalin mutein of SEQ ID NO: 10 (designed binder)
chain: QDSTSDLIPAPPLSKVPLQQNFQDNQFHGKWYVVGLAGNEILREDKDPMKMWATIYELKEDRSYNVTIVMFLAKKCEYLFQTFVPGSQPGEFTLGDIKSSPGRTSGLVRVVSTNYNQHAMVFFKVVWQNREVFWITLYGRTKELTPELKENFIRFSKSLGLPENHIVFPVPIDQCIDGF
notes: as for B1
B4: lipocalin mutein of SEQ ID NO: 1 (designed binder)
chain: QDSTSDLIPAPPLSKVPLQQNFQDNQFHGKWYVVGLAGNEVLREDKDPMKMWATIYELEEDKSYNVTIVMFLAKKCEYLFQTFVPGSQPGEFTLGDIKSSPGRTSGLVRVVSTNYNQHAMVFFKTVWQNREVFWITLYGRTKELTSELKENFIRFSKSLGLPENHIVFPVPIDQCIDG
notes: also called hNGAL mutein; Lcn2 mutein; not shown: C-terminal Strep-tag II encoded by phNGAL98
B5: lipocalin mutein of SEQ ID NO: 12 (designed binder)
chain: B4 chain with E59K, K74E, K75E, T125V, E150K
notes: as for B1
B6: lipocalin mutein of SEQ ID NO: 8 (designed binder)
chain: B4 chain with E59K, F71P, K74E, D96G, S100G, T125V, I135V
notes: as for B1
B7: lipocalin mutein of SEQ ID NO: 11 (designed binder)
chain: B4 chain with V41I, E59K, T125V, E147G
notes: as for B1
B8: lipocalin mutein of SEQ ID NO: 9 (designed binder)
chain: B4 chain with E59K, F71S, T125V, E147G
notes: as for B1
B9: lipocalin mutein of SEQ ID NO: 2 (designed binder)
chain: QDSTSDLIPAPPLSKVPLQQNFQDNQFHGKWYVVGTAGNSILREDKDPQKMWATIYELKEDKSYNVTRVFFEGKKCRYVIETFVPGSQPGEFTLGKIKSAPGGTSILVRVVSTNYNQHAMVFFKVVWQNRELFWITLYGRTKELTSELKENFIRFSKSLGLPENHIVFPVPIDQCIDG
notes: as for B1
B10: lipocalin mutein of SEQ ID NO: 5 (designed binder)
chain: QDSTSDLIPAPPLSKVPLQQNFQDNQFHGKWYVVGAAGNSLLREDKDPMKMWATIYELKEDKSYNVTRVNFGGKKCSYLIETFVPGSQPGEFTLGSIKSRPGATSVLVRVVSTNYNQHAMVFFKLVTQNREVFWITLYGRTKELTSELKENFIRFSKSLGLPENHIVFPVPIDQCIDG
notes: as for B1
B11: lipocalin mutein of SEQ ID NO: 4 (designed binder)
chain: QDSTSDLIPAPPLSKVPLQQNFQDNQFHGKWYVVGVAGNEMLREDKDPLKMLATIYELKEDKSYNVTRVMFEYKKCVYLIETFVPGSQPGEFTLGTIKSVPGLTSGLVRVVSTNYNQHAMVFFKRVWQNREVFWITLYGRTKELTSELKENFIRFSKSLGLPENHIVFPVPIDQCIDG
notes: as for B1
B12: lipocalin mutein of SEQ ID NO: 6 (designed binder)
chain: QDSTSDLIPAPPLSKVPLQQNFQDNQFHGKWYVVGLAGNEILREDKDPLKMWATIYELKEDKSYNVTRVQFGEKKCGYGIETFVPGSQPGEFTLGSIKSVPGGTSRLVRVVSTNYNQHAMVFFKFVWQNREVFWITLYGRTKELTSELKENFIRFSKSLGLPENHIVFPVPIDQCIDG
notes: as for B1

Legend:
[1] = molecular target: T1, C-terminal biotinylated human …; assay: direct ELISA, hepcidin captured via Neutravidin
Experimental: A “direct” ELISA was performed to verify the binding affinity and specificity of the selected Lcn2 muteins. Therefore, a constant concentration of 1 μg/ml C-terminal biotinylated hepcidin (Bachem AG, CH) was captured on the surface of a polystyrol plate (Greiner, GE) via Neutravidin (Thermo Scientific, 5 μg/ml). Two step dilution series of purified Lcn2 muteins were incubated with the captured hepcidin […] at room temperature and detected either via the Strep-tag II using a rabbit anti-strep-tag II polyconal antibody (GenScript, USA) or by using a scaffold-specific polyclonal rabbit antibody. In both cases an anti rabbit IgG-HRP conjugate (Abcam, UK) was employed as secondary detection antibody.

[2] = molecular target: T1, C-terminal biotinylated human …; assay: HT-screening ELISA, reverse ELISA and competition ELISA; T7- and Strep-tagged clone in crude lysate
Experimental: Lipocalin muteins were selected in a HT-screening ELISA. Therein, NGAL variants equipped with a T7 detection tag (Novagen) as well as a Strep-tag II affinity tag (IBA) were soluble expressed in a 96 well microtiter plate using the E. coli strain TG1/F with phNGAL 101. This vector corresponds to phNGAL 98 (SEQ ID NO: 31) with an N-terminal T7 tag consisting of 11 amino acids ([…]) (SEQ ID NO: 34, see also FIG. 4B). Lipocalin mutein expression was induced overnight at 22° C. at 700 rpm with anhydrotetracycline (0.2 μg/ml) at an OD₅₅₀ of 0.6. […] To minimize non-specific binding in the subsequent ELISA screen, the crude cell lysates were supplemented with 2% w/v BSA and 0.1% v/v Tween 20 and tested in ELISA for binding to human Hepcidin-25. Therefore, soluble C-terminal biotinylated human Hepcidin-25 was immobilized on wells of black Fluotrac 600 ELISA plates (Greiner; 384 well) with 1 μg/ml via capturing by Neutravidin (5 μg/ml, Thermo Scientific). Neutravidin, Streptavidin, 5 μg/ml each, and 3% milk were used as negative control. Plates were blocked with PBST/0.1 containing 2% w/v BSA, and subsequently incubated with the bacterial cell extract for 1 h at room temperature plates were washed five times and bound Lipocalin muteins were detected via an anti-T7 monoclonal antibody-HRP conjugate (Novagen), diluted 1:10.000 in PBST/O 1. Therefore, QuantaBlu™ (Pierce; 1:2 diluted in PBS/T 0.1%) was used as fluorogenic HRP substrate. After 45 min of signal development at room temperature fluorescence was excited at a wavelength of 320 nm (±12.5 nm) and measured at 430 nm (±17.5 nm) in a GENiosPlus plate reader (Tecan).
In a reverse ELISA approach soluble expressed muteins from the crude cell lysate were captured in ELISA plates via their T7-tag following incubation with varying amounts of C-terminal biotinylated hHepcidin to reach target-limiting conditions in order to differentiate the muteins by their affinity. Binding of the target was detected via Extravidin-HRP conjugate (Sigma). One could compete for mutein binding by the addition of 100 nM non-biotinylated human Hepcidin-25 indicating, that the muteins bind the non-modified hHepcidin-25 as well.

[3] = molecular target: T2, synthetic non-modified human Hepcidin-25; assay: SPR (Biacore T100), mutein amine-coupled to CM5 chip, hepcidin as analyte, 1:1 model
Experimental: Lipocalin muteins were immobilized to a CM5 sensor chip using standard amine chemistry. The surface of the chip was activated using EDC and NHS. Subsequently, 20 μg/mL lipocalin mutein solutions in 10 mM sodium acetate pH 4.5 (60 μg/mL in 10 mM sodium acetate pH 4.0 for peglyted lipocalin mutein) were applied at a flow rate of 5 μL/min until a surface density of 500-700 resonance units (RU) for non-modified lipocalin muteins and of approximately 1600 RU for pegylated lipocalin with the sequence of SEQ ID NO: 13 was achieved. Residual activated groups were saturated with ethanolamine. The reference channels were treated with EDC/NHS following ethanolamine (blank immobilization). All reagents and materials were purchased from GE Healthcare.
Serial dilutions of human and cynomolgus Hepcidin-25 in running buffer (HBS-EP+, GE Healthcare, BR-1006-68) were applied to the prepared surface. The following parameters were used for the binding assay, contact time 60 s, dissociation time 180-360 s, flow rate 30 μL/min. All measurements were performed on a Biacore T100 instrument (GE Healthcare) at 25° C.
Data were evaluated with Biacore T100 Evaluation software (V 2.0.1). Double referencing was used. The 1:1 Binding model (Langmuir) was used to fit the raw data.

Binder | binding result [1] | binding result [2] | binding result [3]
B1 | binds | – | –
B2 | binds | – | –
B3 | – | binds | –
B4 | binds | – | binds
B5 | – | binds | –
B6 | – | binds | binds
B7 | – | binds | –
B8 | – | binds | –
B9 | binds | – | –
B10 | binds | – | –
B11 | binds | – | –
B12 | binds | – | –
